Molecular target: Cryptosporidium parvum glucosamine-6-phosphate N-acetyltransferase (CpGNA1) (Cryptosporidium parvum)
Assay: crystal structure; CpGNA1 (1.5 mg/ml) cocrystallised with 10 mM acetyl-CoA, soaked with 50 mM acetyl-CoA and 50 mM Glc6P; space group P2(1)2(1)2(1), two monomers in the asymmetric unit; 1.95 Å

- stoichiometry N: 2
Substance: Cryptosporidium parvum glucosamine-6-phosphate N-acetyltransferase (CpGNA1) (enzyme)
